From the DeepSol protein solubility set come the findings set out here.

A short description of this data set: soluble on expression in E. coli; label from the status in PepcDB or PDB records.
“MTKITVVGAGSWGTALAMVLADNGHDVRIWGNRSELMDEINTKHENSRYLPGITLPSTIVAYSSLEEALVDVNVVLIVVPTKAYREVLQDMKKYVAGPTTWIHASKGIEPGTSKRISEVIEEEIPEDLIKDVVVLSGPSHAEEVGLRQATTVTSAAKRMEAAEEVQDLFMNSYFRVYTNPDIVGVELGGALKNIIALAAGITDGLGLGDNAKAALMTRGLTEIARLGRKMGGNPLTFAGLTGMGDLIVTCTSVHSRNWRAGNMLGKGHSLEEVLESMGMVVEGVRTTKAAHELAEKMEVEMPITAALYDVLFNGNNVKDAVGSLMGRVRKHEVEAIPDLL”: the “soluble on expression in E. coli” value is recorded as “not soluble”.
As for “MVSENSDATNVETTALALKILVAGGFGVGKTTMVGAVSEIRPLRTEELLSEAGQSVDDTDGVDQKVTTTVAMDFGRITIRSGLSLYLFGTPGQDRFWFLWDELSQGALGAVVLADTRRLEDCFPAVDYFEHRHIPFVVAVNCFAGARTYGAHDVSRALDLDQGTPVVLCDARDRDSGKEVLIRLVEYAGRMHTARLLDSVGLEHHHHHH”, the entry is “not soluble”.
Then “MAHHHHHHMGCGGSKPNAVSRDVEEKALYLRGIKESIDKAEGNMLATLHALQALMRSYESTSYSFVELAHGTDGNTSLKAKTFESDMRTLKDSGIMPKLQKDLGQSVSSLGKDIRAKHDKANVVYREMTQANDAYCKLRERVNGIEKSYAKKNKPVSECPSYTKNCKERDVCLARYEGLKKVFLTLVEELRTLIRSYVTAGLTRYAFSTADYAQQLVNSLQKYKSE”, with “soluble”.
For the sequence “MIVREGSAEILVPEVYHGPGKRGTGFYNADQKINRDITIEFIKKMGIRNVLDGFGGTGIRGIRISKETDSAVTISEVSPDSYRLIRDNVERNGSQASVINDSFECVLQHGAYEYVDVDPYGSPVPYLDAALMGVKRNGFLGVTATDQSALTGSVPHKTRIRYDALIKNDTFRHEMGIRLLIGYMAKRAASLGRFIDPLISIWHGHYYRVFVRVRKGFEGAGRMMQNLGYVNKHNLLSGIYQDMDEGPVWKGNLQDNAVAEAVLASAGHKAFNPEENRLLFCDLTDIARARHTSLPDIESVIDALSSSGHAASRTMFSPTGIKTDASCDLVESLMMDTLHRRSPA”, the “soluble on expression in E. coli” value is recorded as “not soluble”.
Then “MNPQRDCKEFKVETRTITEVQSEPIYPTGRCGPVLARIPVVISQSKVHIDIESRVCFDHSVFDIYSHSRNIYLTQCKLLNMGNKRYGKIYLNGYVSENIAYAAYCMKGREYGNKKSTSADMLYKTLKVPFECVAKIEYCTSPVFKTSNGFIPVALPDKENSPEDSYFSGERLFCELDEASICESNVERKKLFSRINAGEDSFDTLTEYLVLSITFTLLQWQQVRIPGYFPNNPHSQI”, with “not soluble”; and “MIHPARPLRGQAALEARDPNARLEEAVGLAVALDLNVVEALVAPLRVVTPATLFGKGKVEEFAAICEVEHIDVAVFDDQLTPIQQRNLEKALKVKVVDRTGLILEIFARRARTREGRLQVELARLDYERSRLVRTWTHLERQRGGTGSTGGPGETQIEIDRRLIAGTILKLKKELEEVRRTRTLHRSARKKVPYPTVALVGYTNAGKSTLFNRLTEAEVLAKDMLFATLDPTLRTVKLPDGRPAIMSDTVGFISDLPHELVEAFRATLEEVQEADVVLHVRDVANPDSEAQARDVETVLAELGVTLDEGKTVVEVWNKVDLLSEDDREIVEGQARRNDASAVSAVTGEGCEALLRRIAGLIDDSPPVEVSLAAQDGQALAWIYRNGRVLSRYDGPGGEVTLVARLDAQALGRFERQFPGAQVSAAVDLEHHHHHH”, with “soluble”.
“GHMYETIRYEVKGQVAWLTLNRPDQLNAFTEQMNAEVTKALKQAGADPNVRCVVITGAGRAFCAGEDLSGVTEEMDHGDVLRSRYAPMMKALHHLEKPVVAAVNGAAAGAGMSLALACDFRLLSEKASFAPAFIHVGLVPDAGHLYYLPRLVGRAKALELAVLGEKVTAEEAAALGLATKVIPLSDWEEEVKQFAERLSAMPTKAIGLIKRLLRESEETTFDRYLEREAECQRIAGLTSDHREGVKAFFEKRKPLFQGN”: the “soluble on expression in E. coli” value was “soluble”.
Turning to “LDFDILTNDGTHRNMKLLIDLKNIFSRQLPKMPKEYIVKLVFDRHHESMVILKNKQKVIGGICFRQYKPQRFAEVAFLAVTANEQVRGYGTRLMNKFKDHMQKQNIEYLLTYADNFAIGYFKKQGFTKEHRMPQEKWKGYIKDYDGGTLMECYIHPYVDYGR”, the “soluble on expression in E. coli” value is “soluble”.
Then “MDHSPWQRCLSVLQEELPAQQFSMWIRPLQCVINDNVMTLYAPNRFVLDWVRDKYVNRINELLTINESNNPLLLRFDVGSKPTIDNSVTNSPVSRNTGGNESLFAKATSAPKVAEPESNIPKKTNVRLNYTFENFVEGKSNQLARAAASQVADNPGTAYNPLFIYGGTGLGKTHLLHAVGNGILLNKPNAKIAYMHSERFVQDMVRALQNNAMEKFKQYYRSVDALLIDDIQFFAGKERTQEEFFHTFNALLEGNQQVILTSDRYPKEINGVDDRLKSRFGWGLTLAIEPPELETRVAILKRKAQESQINLADEVAFFIAKRLRSNVRELEGALNRVIANANFTGRAITIDFVREALRDLLALQDKLVTIDNIQRTVAEYYKIKIADLLSKRRNRSVARPRQIAMALSKELTNHSLPEIGDAFGGRDHTTVLHACRKVKSLREETHDIKEDYSNLIRTLSSLEHHHHHH”, with “not soluble”; and “MSLAQYPVIGIDDDEFATAKKLITKQEVRAVTLSKLRLQDDLVMWDIGAGSASVSIEASNLMPNGRIFALERNPQYLGFIRDNLKKFVARNVTLVEAFAPEGLDDLPDPDRVFIGGSGGMLEEIIDAVDRRLKSEGVIVLNAVTLDTLTKAVEFLEDHGYMVEVACVNVAKTKGLTEYKMFESHNPVYIITAWKSDEGHHHHHH”, with “soluble”; and “MIDCAIIGGGPAGLSAGLYATRGGVKNAVLFEKGMPGGQITGSSEIENYPGVKEVVSGLDFMQPWQEQCFRFGLKHEMTAVQRVSKKDSHFVILAEDGKTFEAKSVIIATGGSPKRTGIKGESEYWGKGVSTCATCDGFFYKNKEVAVLGGGDTAVEEAIYLANICKKVYLIHRRDGFRCAPITLEHAKNNDKIEFLTPYVVEEIKGDASGVSSLSIKNTATNEKRELVVPGFFIFVGYDVNNAVLKQEDNSMLCKCDEYGSIVVDFSMKTNVQGLFAAGDIRIFAPKQVVCAASDGATAALSVISYLEHH”, with “soluble”.
As for “MDKFIKQLDPNLDYINHEINDGKCYITVASNRKEVTCPFCGQSSSRIHSTYNRIFQDLPIQGNKVFIIIRNRKMFCDNHDCSHTTFAERFDFISYKAKKTRRLEDEIVRLSINCSSVAASKALKENVVDIGKSTVCNLLKKETLVVDKKTVTVVCIDDFAIKKRKSYGTIMIDIFTHQILDMIDSRDYETVCEWLKTYPNLSVISRDGSVIYNNAIANAHPEALQISDRFHLLKNLTSYITEYLKKRLKPQVLIQAVSQETKEIKTIRQADENRKLTLKEKYEKIKQLLLEGKCKTEICRSLNMDIRAYDKLMAMTAEKREKSFQTKKMIIHEERVKQKMERVNEVRELKGIGLSNREISRRTGLNRKTVSRYLDENFNPVHAAYGKKRNGKLTPYIKAIDEYLEKGIMGSYIEEKIREMGYEGSSSTVRDYITDWKKRRKKYYDKSREDGTKTETIKRENILKLLYQPIEKSKNN”, the entry is “soluble”; as for “MAVLGRKSDRAVFDDGPVPRYEAVKQFIRSRIESGEWPPHHRVPSENDIVADLGVSRMTANRALRELASEGAITRVQGVGSFVAAHKGSTALLEVRNIADEIRERGHRHTSRITLLEEEQASTEVAEALGLAAKARVFHSIIVHAEDDVPIQIEDRFVNPAICPNYLEQDFTSMTPNVYLTLVAPITRTEQIVEAVLPKPWECKLLSIGRGEPCLMIRRRTWSEAANVTVAWLTYPGTRYRLEGVSQ”, “not soluble”; as for “MNHYVYILECKDGSWYTGYTTDVDRRIKKHASGKGAKYTRGRGPFRLVATWAFPSKEEAMRWEYEVKHLSRRKKEQLVSLKGGPYENTTKLSTTMAGDPLEHHHHHH”, “soluble”.
Then “MGSDKIHHHHHHMKFKQDYFDQLSGFYSQVTPQGLPRPQWLAWSEDAAALIGLKQPDDELLQGLAGNQAIPGASYYAQVYSGHQFGGYSPQLGDGRSIILGEAEGPQGYWDVALKGAGMTPYSRHGDGRAVMRSAVREFLVSEALHHLNIPTTRALAVIGSDLPVWRETQETAAITVRLAKSHIRFGHFEFFCHSEQGSKDKLKQLLDFTLSQHYPELSRDQAGYIAWFNRVVADTAKLIAHWQAVGFAHGVMNTDNMSILGDSFDFGPFAFLDTFEEDFICNHSDPNGRYAFGQQPGVGLWNLQRLAQALVPIIASDDLIAALNTYQHHLVQAYLVLMRDKLGIKLVEPAGSERDEADLQLIGGFTLLMEANRLDHTNTWRRFAQLDPNSQHSSLRDDFIDLAGFDTWYQAYQERLGQVSDVAGWQAVRAQVNPKYVLRNYLAQEAIIACEEGNTQPLAELHQLLTRPFDEQPEKEAYAKRPPEWGQGLIMSCSS”, with “not soluble”.
Take “GSCSSKPANTAKGEKGSDKTGKDLELKLSFQEGIAPGESLNEKLDFMEKLGVVGFEPGGGGLAGRVNEIKQALNGRNIKVSAICAGFKGFILSTDPAIRKECMDTMKEIIAAAGELGSTGVIIVPAFNGQVPALPHTMETRDFLCEQFNEMGTFAAQHGTSVIFEPLNRKECFYLRQVADAASLCRDINNPGVRCMGDFWHMTWEETSDMGAFISGGEYLQHVHVASRKRRSMPGEDGDADNYINGFKGLKMIGYNNYVSFECGCQGDRNVVVPAAVKLLREQWEQA”: the “soluble on expression in E. coli” value is recorded as “soluble”.
As for “MASETVSNHQEKALALLQADAEKILRLIKVQMDHLTMPQCPLYEEVLDTQMFGLSREVDFAVRLGLIAEEQGKVMLGELERELSALHEAFTNKQQ”, the entry is “not soluble”.
Then “MDALVEDDICILNHEKAHKRDTVTPVSIYSGDESVASHFALVTAYEDIKKRLKDSEKENSLLKKRIRFLEEKLIARFEEETSSVGREQVNKAYHAYREVCIDRDNLKSKLDKMNKDNSESLKVLNEQLQSKEVELLQLRTEVETQQVMRNLNPPSSNWEVEKLSCDLKIHGLEQELELMRKECSDLKIELQKAKQTDPYQEDNLKSRDLQKLSISSDNMQHAYWELKREMSNLHLVTQVQAELLRKLKTSTAIKKGKSLFTGNH”, with “soluble”; and “MGSDKIHHHHHHMRYNCLYLIFKESRFVKIAIVANTSWNIYNFRLNLIHFFLAHKYEVVCIAPVDRHTEALTTLPVTFVPVEIDSKGNNPIKDARLVGKFLSIYKKHKPDVILQYTIKPNIYGTLAAKLCGIPTINTVTGLGTVFLHDTCITRLAQQLYAFSFKFATVAVFQNEDDRDIFVQKRIITHAKTQIIKGSGVNTTHFIPAKTYSKAFAFLMVARLLYDKGIREYAQAAKCLHEQHGNNVQCLLIGAIDSDKQLGINKEDVHAWANRHHLIYKPFDTAILKEYQQANVVVLPSYREGLSKSLLEAGACGKPLIASNVSGCKEIVIDNWNGYLCEAKDAGNLFDKMNLMLETSPEQLAEMGKNSRDFIEQNFSDKIISNDYFYLIKRVTESKKTNTNDIH”, with “not soluble”; and “MGSDKIHHHHHHMKIGITCYPSMGGSGIIATELGIKMAERGHEVHFITSNIPFRIRKPLPNMTFHQVEVNQYAVFQYPPYDITLSTKISDVIQEYDLDILHMHYAVPHAVCGILAKQMSGKNVKIMTTLHGTDITVLGYDHTLQNAIKFGIEQSDIVTSVSHSLAQQTYEIINTKKEIIPIYNFVRENEFPTRHNEELKDCYGISPEEKVLIHVSNFRKVKRIDTVIETFAKVHESIPSKLILLGDGPELIDMRHKARELDVETHVLFLGKQNDVSAFYQLSDLVLLLSEKESFGLTLLEAMKTGVLPIGSHAGGIKEVIRHEETGFIVDIGDSTQAAKYAIKLLSNPELYQKMQSQMLKDIEARFSSDLITDQYENYYRKMLEQGENNNES”, with “not soluble”.
